Results: PMC10397247

How the values were obtained:
4H2438-bA = target: T1, 4H2438-bA; assay: two-hybrid library CCNG1;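 also: natural log of median RNA to DNA barcode read ratio; higher means stronger binding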
T1 chain: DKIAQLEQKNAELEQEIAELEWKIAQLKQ

4H2473-bA = target: T2, 4H2473-bA; assay: two-hybrid library CCNG1;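 also: natural log of median RNA to DNA barcode read ratio; higher means stronger binding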
T2 chain: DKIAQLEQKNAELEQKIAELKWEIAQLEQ

4H2503-bA = target: T3, 4H2503-bA; assay: two-hybrid library CCNG1;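 also: natural log of median RNA to DNA barcode read ratio; higher means stronger binding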
T3 chain: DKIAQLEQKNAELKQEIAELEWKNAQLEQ

4H2588-bA = target: T4, 4H2588-bA; assay: two-hybrid library CCNG1;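 also: natural log of median RNA to DNA barcode read ratio; higher means stronger binding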
T4 chain: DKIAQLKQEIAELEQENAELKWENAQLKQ

4H2692-bA = target: T5, 4H2692-bA; assay: two-hybrid library CCNG1;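 also: natural log of median RNA to DNA barcode read ratio; higher means stronger binding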
T5 chain: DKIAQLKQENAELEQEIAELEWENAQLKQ

4H2717-bA = target: T6, 4H2717-bA; assay: two-hybrid library CCNG1;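 also: natural log of median RNA to DNA barcode read ratio; higher means stronger binding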
T6 chain: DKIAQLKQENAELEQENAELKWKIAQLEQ

4H2839-bA = target: T7, 4H2839-bA; assay: two-hybrid library CCNG1
T7 chain: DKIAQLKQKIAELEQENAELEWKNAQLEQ

4H2915-bA = target: T8, 4H2915-bA; assay: two-hybrid library CCNG1
T8 chain: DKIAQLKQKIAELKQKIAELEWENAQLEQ

4H3057-bA = target: T9, 4H3057-bA; assay: two-hybrid library CCNG1
T9 chain: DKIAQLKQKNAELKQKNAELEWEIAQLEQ

4H319-bA = target: T10, 4H319-bA; assay: two-hybrid library CCNG1
T10 chain: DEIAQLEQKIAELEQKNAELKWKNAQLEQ

4H3277-bA = target: T11, 4H3277-bA; assay: two-hybrid library CCNG1
T11 chain: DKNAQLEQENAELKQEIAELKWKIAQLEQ

4H348-bA = target: T12, 4H348-bA; assay: two-hybrid library CCNG1
T12 chain: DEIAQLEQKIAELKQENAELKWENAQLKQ

4H40-bA = target: T13, 4H40-bA; assay: two-hybrid library CCNG1
T13 chain: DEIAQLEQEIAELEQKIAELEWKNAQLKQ

4H477-bA = target: T14, 4H477-bA; assay: two-hybrid library CCNG1
T14 chain: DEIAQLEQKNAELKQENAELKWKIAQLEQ

4H492-bA = target: T15, 4H492-bA; assay: two-hybrid library CCNG1
T15 chain: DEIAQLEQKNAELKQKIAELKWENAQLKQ

4H741-bA = target: T16, 4H741-bA; assay: two-hybrid library CCNG1
T16 chain: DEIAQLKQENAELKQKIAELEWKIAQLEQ

4H967-bA = target: T17, 4H967-bA; assay: two-hybrid library CCNG1
T17 chain: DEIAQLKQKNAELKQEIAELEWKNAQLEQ

4H1348-AA = target: T18, 4H1348-AA; assay: two-hybrid library CCmax
T18 chain: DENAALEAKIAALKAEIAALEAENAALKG

4H1391-AA = target: T19, 4H1391-AA; assay: two-hybrid library CCmax; conditions: mean of both orientations
T19 chain: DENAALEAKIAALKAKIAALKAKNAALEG

4H146-AA = target: T20, 4H146-AA; assay: two-hybrid library CCmax
T20 chain: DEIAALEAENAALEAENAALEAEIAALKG

4H1809-AA = target: T21, 4H1809-AA; assay: two-hybrid library CCmax; conditions: mean of both orientations
T21 chain: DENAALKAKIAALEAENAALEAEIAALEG

4H1854-AA = target: T22, 4H1854-AA; assay: two-hybrid library CCmax; conditions: mean of both orientations
T22 chain: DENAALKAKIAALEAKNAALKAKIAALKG

4H189-AA = target: T23, 4H189-AA; assay: two-hybrid library CCmax
T23 chain: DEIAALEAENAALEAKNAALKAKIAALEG

4H2248-AA = target: T24, 4H2248-AA; assay: two-hybrid library CCmax; conditions: mean of both orientations
T24 chain: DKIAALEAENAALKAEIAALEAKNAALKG

4H2283-AA = target: T25, 4H2283-AA; assay: two-hybrid library CCmax; conditions: mean of both orientations
T25 chain: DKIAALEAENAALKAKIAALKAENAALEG

4H2713-AA = target: T26, 4H2713-AA; assay: two-hybrid library CCmax; conditions: mean of both orientations
T26 chain: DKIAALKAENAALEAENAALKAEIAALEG

4H2742-AA = target: T27, 4H2742-AA; assay: two-hybrid library CCmax; conditions: mean of both orientations
T27 chain: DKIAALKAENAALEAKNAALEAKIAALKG

4H2948-AA = target: T28, 4H2948-AA; assay: two-hybrid library CCmax; conditions: mean of both orientations
T28 chain: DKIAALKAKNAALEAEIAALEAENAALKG

4H2991-AA = target: T29, 4H2991-AA; assay: two-hybrid library CCmax; conditions: mean of both orientations
T29 chain: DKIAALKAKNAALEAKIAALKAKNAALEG

4H3029-AA = target: T30, 4H3029-AA; assay: two-hybrid library CCmax; conditions: mean of both orientations
T30 chain: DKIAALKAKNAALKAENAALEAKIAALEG

4H3066-AA = target: T31, 4H3066-AA; assay: two-hybrid library CCmax; conditions: mean of both orientations
T31 chain: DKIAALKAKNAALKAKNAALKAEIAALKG

4H3102-AA = target: T32, 4H3102-AA; assay: two-hybrid library CCmax; conditions: mean of both orientations
T32 chain: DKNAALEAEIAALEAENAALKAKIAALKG

4H3121-AA = target: T33, 4H3121-AA; assay: two-hybrid library CCmax; conditions: mean of both orientations
T33 chain: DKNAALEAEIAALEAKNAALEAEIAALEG

4H3417-AA = target: T34, 4H3417-AA; assay: two-hybrid library CCmax; conditions: mean of both orientations
T34 chain: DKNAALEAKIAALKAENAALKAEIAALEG

4H3446-AA = target: T35, 4H3446-AA; assay: two-hybrid library CCmax; conditions: mean of both orientations
T35 chain: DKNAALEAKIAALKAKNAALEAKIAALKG

4H3591-AA = target: T36, 4H3591-AA; assay: two-hybrid library CCmax; conditions: mean of both orientations
T36 chain: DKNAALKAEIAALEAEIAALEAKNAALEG

4H3628-AA = target: T37, 4H3628-AA; assay: two-hybrid library CCmax; conditions: mean of both orientations
T37 chain: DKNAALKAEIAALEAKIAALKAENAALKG

4H3666-AA = target: T38, 4H3666-AA; assay: two-hybrid library CCmax; conditions: mean of both orientations
T38 chain: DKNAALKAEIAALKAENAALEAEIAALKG

4H3709-AA = target: T39, 4H3709-AA; assay: two-hybrid library CCmax; conditions: mean of both orientations
T39 chain: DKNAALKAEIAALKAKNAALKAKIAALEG

4H391-AA = target: T40, 4H391-AA; assay: two-hybrid library CCmax; conditions: mean of both orientations
T40 chain: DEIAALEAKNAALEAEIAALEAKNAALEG

4H3920-AA = target: T41, 4H3920-AA; assay: two-hybrid library CCmax; conditions: mean of both orientations
T41 chain: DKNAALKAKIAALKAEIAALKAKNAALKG

4H3939-AA = target: T42, 4H3939-AA; assay: two-hybrid library CCmax; conditions: mean of both orientations
T42 chain: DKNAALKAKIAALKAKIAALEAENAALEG

4H428-AA = target: T43, 4H428-AA; assay: two-hybrid library CCmax; conditions: mean of both orientations
T43 chain: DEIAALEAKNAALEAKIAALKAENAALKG

4H478-AA = target: T44, 4H478-AA; assay: two-hybrid library CCmax; conditions: mean of both orientations
T44 chain: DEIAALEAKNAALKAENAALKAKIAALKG

4H497-AA = target: T45, 4H497-AA; assay: two-hybrid library CCmax; conditions: mean of both orientations
T45 chain: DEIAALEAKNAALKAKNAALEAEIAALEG

4H656-AA = target: T46, 4H656-AA; assay: two-hybrid library CCmax; conditions: mean of both orientations
T46 chain: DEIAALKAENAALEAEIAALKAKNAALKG

4H675-AA = target: T47, 4H675-AA; assay: two-hybrid library CCmax; conditions: mean of both orientations
T47 chain: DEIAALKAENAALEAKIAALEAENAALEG

4H971-AA = target: T48, 4H971-AA; assay: two-hybrid library CCmax
T48 chain: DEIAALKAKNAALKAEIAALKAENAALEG

DKIAQLEQKNAELEQEIAELEWKIAQLKQ [4H2438-bA]
interaction score (4H2438-bA): 1.74 | interaction score (4H2473-bA): 1.36 | interaction score (4H2503-bA): 0.927 | interaction score (4H2588-bA): -1.29 | interaction score (4H2692-bA): 0.00488 | interaction score (4H2717-bA): -0.288 | interaction score (4H2839-bA): 0.364 | interaction score (4H2915-bA): 1.77 | interaction score (4H3057-bA): 2.39 | interaction score (4H319-bA): -0.948 | interaction score (4H3277-bA): -1.45 | interaction score (4H348-bA): 0.0426 | interaction score (4H40-bA): -0.83 | interaction score (4H477-bA): -0.278 | interaction score (4H492-bA): 1.59 | interaction score (4H741-bA): -0.215 | interaction score (4H967-bA): -0.568

DENAALEAKIAALKAEIAALEAENAALKG [4H1348-AA]
interaction score (4H1348-AA): 1.56 | interaction score (4H1391-AA): -0.755 | interaction score (4H146-AA): -2.73 | interaction score (4H1809-AA): -1.86 | interaction score (4H1854-AA): -1.01 | interaction score (4H189-AA): -1.2 | interaction score (4H2248-AA): -1.37 | interaction score (4H2283-AA): -1.14 | interaction score (4H2713-AA): -1.2 | interaction score (4H2742-AA): -1.31 | interaction score (4H2948-AA): -1.13 | interaction score (4H2991-AA): -1.75 | interaction score (4H3029-AA): -1.57 | interaction score (4H3066-AA): -2.16 | interaction score (4H3102-AA): -1.34 | interaction score (4H3121-AA): -1.43 | interaction score (4H3417-AA): -1.13 | interaction score (4H3446-AA): -1.25 | interaction score (4H3591-AA): 0.665 | interaction score (4H3628-AA): 2.05 | interaction score (4H3666-AA): -1.46 | interaction score (4H3709-AA): -1.57 | interaction score (4H391-AA): -1.94 | interaction score (4H3920-AA): 1.37 | interaction score (4H3939-AA): 0.262 | interaction score (4H428-AA): -0.542 | interaction score (4H478-AA): 0.507 | interaction score (4H497-AA): -2.02 | interaction score (4H656-AA): -0.833 | interaction score (4H675-AA): -1.36 | interaction score (4H971-AA): -1.78
